In patent US20060134709A1:

Assays:
[1] = biological target: soluble monomeric FcγRIIIA-linker-AVITAG (human) (UniProt P08637); assay: ELISA
[2] = biological target: soluble FcγRIIB (human) (UniProt P31994); assay: ELISA

| fold increase vs wt [1] [x] | fold increase vs wt [2] [x] | further results | Substance |
| --- | --- | --- | --- |
| 1.9 | 7.2 |  | ch4-4-20 "term is M, P396L" (antibody) |
| 1.5 | 6 |  | ch4-4-20 A231V, Q386H, V412M (antibody) |
| 0.5 |  |  | ch4-4-20 A378V, N390I, V422I (antibody) |
| 2.5 | 6 |  | ch4-4-20 D221Y, M252I, A330G, A339T, T359N, V422I, H433L (antibody) |
| 3 |  |  | ch4-4-20 D280E, S354F, A431D, L441I (antibody) |
| 0.5 |  |  | ch4-4-20 D312E, K327N, I378S (antibody) |
|  |  | fold decrease vs wt [1]: 0.5 x; fold decrease vs wt [2]: 0.5 x | ch4-4-20 D399E, M428L (antibody) |
|  | 0.5 |  | ch4-4-20 D399E, R292L, V185M (antibody) |
| 0.5 |  |  | ch4-4-20 D401V (antibody) |
| 0.5 | 4 |  | ch4-4-20 E216D, E345K, S375I (antibody) |
| 1.5 |  |  | ch4-4-20 E233D, K334E (antibody) |
| 1.25 | 4 |  | ch4-4-20 E258D, N384K (antibody) |
| 1.9 | 4.9 |  | ch4-4-20 E258D, P396L (antibody) |
| 2 | 2.5 |  | ch4-4-20 F241L, E258G (antibody) |
| 1 |  |  | ch4-4-20 F243L, R255L, E318K (antibody) |
| 1.6 | 5.4 |  | ch4-4-20 F243L, V305I, A378D, F404S, P396L (antibody) |
| 0.5 |  |  | ch4-4-20 F275I, K334N, V348M (antibody) |
| 2.2 | 3.7 |  | ch4-4-20 F275L, Q362H, N384K, P396L (antibody) |
| 3 |  |  | ch4-4-20 F275Y (antibody) |
| 1 | 0.75 |  | ch4-4-20 G385E, P247H (antibody) |
| 0.5 |  |  | ch4-4-20 H224L (antibody) |
| 1.5 |  |  | ch4-4-20 H268D, E318D (antibody) |
| 3.8 | 13.7 |  | ch4-4-20 H268D, P396L (antibody) |
| 0.5 |  |  | ch4-4-20 H310Y, T289A, G337E (antibody) |
| 1.5 | 0.5 |  | ch4-4-20 I377F (antibody) |
|  |  | fold decrease vs wt [1]: 0.5 x | ch4-4-20 I377N (antibody) |

| fold increase vs wt [1] [x] | fold increase vs wt [2] [x] | further results | Substance |
| --- | --- | --- | --- |
| 1.9 | 4.6 |  | ch4-4-20 K210M, P396L (antibody) |
| 2.7 | 8.7 |  | ch4-4-20 K210N, K222I, K320M, P396L (antibody) |
| 3.5 |  |  | ch4-4-20 K218R, G281D, G385R (antibody) |
| 1 |  |  | ch4-4-20 K222N (antibody) |
| 1 | 7 |  | ch4-4-20 K222N, T335N, K370E, A378V, T394M (antibody) |
|  |  | fold decrease vs wt [2]: 0.5 x | ch4-4-20 K246I, Q362H, K370E (antibody) |
| 1.1 | 4.8 |  | ch4-4-20 K246N, Q419R, P396L (antibody) |
| 1 |  |  | ch4-4-20 K246R, S298N, I377F (antibody) |
| 1 | 2.5 |  | ch4-4-20 K246T, P396H (antibody) |
| 1 |  |  | ch4-4-20 K246T, Y319F (antibody) |
| 1 |  |  | ch4-4-20 K288N, K326N (antibody) |
| 1.3 | 6.7 |  | ch4-4-20 K290E, V369A, T393A, P396L (antibody) |
| 0.25 | 6 |  | ch4-4-20 K290T, G371D (antibody) |
| 2.8 | 6.1 |  | ch4-4-20 K290T, N390I, P396L (antibody) |
| 2.5 | 7 |  | ch4-4-20 K317N, F423-deleted (antibody) |
| 1 |  |  | ch4-4-20 K320E, K326E (antibody) |
| 0.5 |  |  | ch4-4-20 K326E, G385E (antibody) |
| 2.9 | 5.9 |  | ch4-4-20 K326I, P396L (antibody) |
| 4 | 9.3 |  | ch4-4-20 K326I, S408N, P396L (antibody) |
| 1.5 |  |  | ch4-4-20 K326Q, K334E, T359N, T366S (antibody) |
| 2.5 |  |  | ch4-4-20 K334E (antibody) |
| 1.5 | 4.5 |  | ch4-4-20 K334E, E380D (antibody) |
| 1 |  |  | ch4-4-20 K334E, T359N, T366S, Q386R (antibody) |
| 1 |  |  | ch4-4-20 K334I (antibody) |
| 0.5 |  |  | ch4-4-20 K334N (antibody) |
| 3.1 |  |  | ch4-4-20 K334N, P396L (antibody) |

| fold increase vs wt [1] [x] | fold increase vs wt [2] [x] | further results | Substance |
| --- | --- | --- | --- |
| 2 | 6.6 |  | ch4-4-20 K370E, P396L (antibody) |
| 1 | 3.5 |  | ch4-4-20 K370N, S440N (antibody) |
|  |  | fold decrease vs wt [1]: 0.25 x | ch4-4-20 K414N (antibody) |
| 2 |  |  | ch4-4-20 L235P, V382M, S304G, V305I, V323I (antibody) |
| 2.5 | 4.1 |  | ch4-4-20 L242F, P396L (antibody) |
| 1.9 | 4.2 |  | ch4-4-20 L358P, P396L (antibody) |
| 1.5 |  |  | ch4-4-20 L398V (antibody) |
| 1.7 | 4.5 |  | ch4-4-20 L410H, P396L (antibody) |
|  | 0.75 |  | ch4-4-20 N315I (antibody) |
| 1 | 9 | fold vs wt [1]: 1 X; fold vs wt [2]: 9 X | ch4-4-20 N315I, V379M, T394M (antibody) |
| 2.2 | 5.2 |  | ch4-4-20 N384K, P396L (antibody) |
| 1.5 | 4.8 |  | ch4-4-20 P217A, T359A, P396L (antibody) |
| 2 | 4.5 |  | ch4-4-20 P217S, A378V, S408R (antibody) |
| 2 | 7 |  | ch4-4-20 P217S, V305I, I309L, N390H, P396L (antibody) |
| 1 | 0.5 |  | ch4-4-20 P227S, K290E (antibody) |
| 1.5 | 4 |  | ch4-4-20 P227S, P396L (antibody) |
| 1.75 | 1.5 |  | ch4-4-20 P244H, L358M, V379M, N384K, V397M (antibody) |
| 2.5 | 4 |  | ch4-4-20 P244H, P396L (antibody) |
| 0.5 | 4 |  | ch4-4-20 P247L (antibody) |
| 0.75 |  | fold decrease vs wt [2]: 0.25 x | ch4-4-20 P247L, A330T, S440G (antibody) |
|  |  | fold vs wt [1]: 1 x | ch4-4-20 P247L, A431V, S442F (antibody) |
| 1.5 | 9 |  | ch4-4-20 P247L, E389G (antibody) |
| 3 | 2.5 |  | ch4-4-20 P247L, I253N, K334N (antibody) |
| 1 |  |  | ch4-4-20 P247L, I377F (antibody) |
| 1.25 |  |  | ch4-4-20 P247L, L398Q (antibody) |
| 1.5 |  |  | ch4-4-20 P247L, W313R, E388G (antibody) |

| fold increase vs wt [1] [x] | fold increase vs wt [2] [x] | further results | Substance |
| --- | --- | --- | --- |
| 1.2 | 4.2 |  | ch4-4-20 P247S, P396L (antibody) |
|  |  | fold decrease vs wt [1]: 0.5 x | ch4-4-20 P291S, K288E, H268L, A141V (antibody) |
|  |  | fold decrease vs wt [1]: 0.5 x; fold decrease vs wt [2]: 0.25 x | ch4-4-20 P291S, P353Q (antibody) |
| 0.5 | 6 |  | ch4-4-20 P343S, P353L, S375I, S383N (antibody) |
| 1 |  |  | ch4-4-20 P396H (antibody) |
| 1 |  |  | ch4-4-20 P396L (antibody) |
| 0.5 |  |  | ch4-4-20 Q347H, A339V (antibody) |
| 2 | 6.9 |  | ch4-4-20 Q419H, P396L (antibody) |
| 2.2 | 6.1 |  | ch4-4-20 Q419L, P396L (antibody) |
| 1.8 | 6 |  | ch4-4-20 R255L, P396L (antibody) |
| 2 |  |  | ch4-4-20 R255Q, K326E (antibody) |
|  |  | fold decrease vs wt [1]: 0.5 x | ch4-4-20 R301C, M252L, S192T (antibody) |
|  |  | fold decrease vs wt [1]: 0.5 x; fold decrease vs wt [2]: 0.25 x | ch4-4-20 R301H, K340E, D399E (antibody) |
| 1 |  |  | ch4-4-20 S219Y (antibody) |
| 2 |  |  | ch4-4-20 S298N, W381R (antibody) |
| 0.5 |  |  | ch4-4-20 S383N, N384K, T256N, V262L, K218E, R214I, K205E, F149Y, K133M (antibody) |
| 1.5 |  |  | ch4-4-20 T256S, V305I, K334E, N390S (antibody) |
| 0.5 |  |  | ch4-4-20 T335N, K370E, A378V, T394M, S424L (antibody) |
|  |  | fold vs wt [1]: 1.25 x | ch4-4-20 T335N, P387S, H435Q (antibody) |
| 0.5 |  |  | ch4-4-20 T394M, V397M (antibody) |
| 1 |  |  | ch4-4-20 V279L, P395S (antibody) |
| 1 |  |  | ch4-4-20 V282M (antibody) |
|  |  | fold vs wt [1]: 1 x | ch4-4-20 V284A, F372L (antibody) |
| 0.25 |  |  | ch4-4-20 V397M, T411A, S415N (antibody) |
